This is an account of results in PMC8494132, “Human Three-Finger Protein Lypd6 Is a Negative Modulator of the Cholinergic System in the Brain” (Frontiers in Cell and Developmental Biology, 2021).

Assay [1] has as its target T1, α7-nAChR (native, rat hippocampal CA1 interneurons) (Rattus norvegicus, UniProt Q05941).
T1 construct: gene Chrna7; native receptor in CA1 stratum radiatum interneurons of hippocampal slices
The assay can be described thus: whole-cell patch clamp, hippocampal slices. Conditions: agonist; 1 mM choline pulses, 22°C, -60 mV, pH 7.4.

The target in assay [2] is LRP6 (Homo sapiens) (UniProt O75581). Conditions: cited from earlier work.
LRP6 (Homo sapiens), sequence (O75581 20-1370): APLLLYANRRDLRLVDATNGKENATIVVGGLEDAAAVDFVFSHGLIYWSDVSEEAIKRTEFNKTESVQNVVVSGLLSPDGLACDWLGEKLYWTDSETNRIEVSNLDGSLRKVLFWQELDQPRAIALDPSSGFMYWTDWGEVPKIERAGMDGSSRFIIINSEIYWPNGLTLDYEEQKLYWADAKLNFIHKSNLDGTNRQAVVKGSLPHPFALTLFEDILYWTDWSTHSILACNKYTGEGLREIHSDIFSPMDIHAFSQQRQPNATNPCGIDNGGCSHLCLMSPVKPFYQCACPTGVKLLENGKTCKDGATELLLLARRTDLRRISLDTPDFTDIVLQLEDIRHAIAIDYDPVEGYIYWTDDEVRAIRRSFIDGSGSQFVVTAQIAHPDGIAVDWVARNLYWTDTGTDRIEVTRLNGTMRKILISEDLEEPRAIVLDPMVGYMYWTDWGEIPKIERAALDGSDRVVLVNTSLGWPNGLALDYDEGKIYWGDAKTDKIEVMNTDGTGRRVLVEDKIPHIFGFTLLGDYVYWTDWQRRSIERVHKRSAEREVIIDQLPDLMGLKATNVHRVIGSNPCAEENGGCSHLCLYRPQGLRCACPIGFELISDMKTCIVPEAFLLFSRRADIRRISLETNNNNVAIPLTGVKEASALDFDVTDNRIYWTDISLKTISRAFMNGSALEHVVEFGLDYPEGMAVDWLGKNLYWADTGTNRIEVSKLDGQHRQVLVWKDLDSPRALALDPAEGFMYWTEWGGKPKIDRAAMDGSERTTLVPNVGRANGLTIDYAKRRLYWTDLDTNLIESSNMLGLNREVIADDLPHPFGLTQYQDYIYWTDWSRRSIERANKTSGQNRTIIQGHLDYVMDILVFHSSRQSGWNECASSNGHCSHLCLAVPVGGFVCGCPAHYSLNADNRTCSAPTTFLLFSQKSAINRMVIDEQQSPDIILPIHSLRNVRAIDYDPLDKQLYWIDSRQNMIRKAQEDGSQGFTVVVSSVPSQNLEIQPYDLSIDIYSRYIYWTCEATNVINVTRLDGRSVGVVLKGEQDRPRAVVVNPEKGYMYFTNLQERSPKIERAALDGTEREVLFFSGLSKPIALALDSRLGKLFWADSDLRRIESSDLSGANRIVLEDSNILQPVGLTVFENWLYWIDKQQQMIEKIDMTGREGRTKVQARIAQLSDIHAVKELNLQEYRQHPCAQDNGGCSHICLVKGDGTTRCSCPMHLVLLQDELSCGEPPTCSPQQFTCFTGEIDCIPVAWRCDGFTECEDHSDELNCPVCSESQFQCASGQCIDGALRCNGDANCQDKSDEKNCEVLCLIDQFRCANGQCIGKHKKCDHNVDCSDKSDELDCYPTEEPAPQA
The target of assay [3] is human α3β4 nicotinic acetylcholine receptor expressed in X. laevis oocytes (human) (UniProt P32297).
human α3β4 nicotinic acetylcholine receptor expressed in X. laevis oocytes (human), sequence (P32297 32-505, chain 1 of 2): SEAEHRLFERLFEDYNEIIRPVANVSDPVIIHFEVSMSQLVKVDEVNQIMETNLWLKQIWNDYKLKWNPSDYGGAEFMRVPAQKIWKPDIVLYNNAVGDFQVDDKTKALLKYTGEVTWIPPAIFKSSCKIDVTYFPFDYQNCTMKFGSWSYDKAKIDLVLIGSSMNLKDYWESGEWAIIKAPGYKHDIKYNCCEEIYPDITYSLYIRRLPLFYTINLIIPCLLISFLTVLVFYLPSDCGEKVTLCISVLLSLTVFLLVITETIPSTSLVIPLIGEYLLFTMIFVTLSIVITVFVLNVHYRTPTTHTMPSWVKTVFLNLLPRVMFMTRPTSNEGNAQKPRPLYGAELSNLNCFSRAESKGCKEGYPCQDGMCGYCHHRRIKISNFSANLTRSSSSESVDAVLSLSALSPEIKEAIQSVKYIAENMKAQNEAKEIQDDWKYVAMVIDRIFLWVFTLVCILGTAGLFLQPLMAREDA
human α3β4 nicotinic acetylcholine receptor expressed in X. laevis oocytes (human), sequence (P30926 22-498, chain 2 of 2, further chain): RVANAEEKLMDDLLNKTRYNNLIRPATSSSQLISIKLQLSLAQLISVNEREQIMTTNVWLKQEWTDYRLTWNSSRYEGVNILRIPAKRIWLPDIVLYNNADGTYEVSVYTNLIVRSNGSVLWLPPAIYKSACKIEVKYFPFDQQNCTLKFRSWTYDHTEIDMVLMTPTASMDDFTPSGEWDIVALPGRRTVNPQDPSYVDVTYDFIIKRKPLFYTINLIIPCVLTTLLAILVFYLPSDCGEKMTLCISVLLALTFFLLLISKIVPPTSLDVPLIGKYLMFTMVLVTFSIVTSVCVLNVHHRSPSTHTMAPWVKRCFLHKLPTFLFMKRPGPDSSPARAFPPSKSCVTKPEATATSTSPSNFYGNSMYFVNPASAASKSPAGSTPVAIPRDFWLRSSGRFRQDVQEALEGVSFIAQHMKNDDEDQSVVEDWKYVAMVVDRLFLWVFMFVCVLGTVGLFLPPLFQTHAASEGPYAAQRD
For assay [4], the target named is human homomeric α7 nicotinic acetylcholine receptor expressed in X. laevis oocytes (human) (UniProt P36544).
human homomeric α7 nicotinic acetylcholine receptor expressed in X. laevis oocytes (human), sequence (P36544 23-502): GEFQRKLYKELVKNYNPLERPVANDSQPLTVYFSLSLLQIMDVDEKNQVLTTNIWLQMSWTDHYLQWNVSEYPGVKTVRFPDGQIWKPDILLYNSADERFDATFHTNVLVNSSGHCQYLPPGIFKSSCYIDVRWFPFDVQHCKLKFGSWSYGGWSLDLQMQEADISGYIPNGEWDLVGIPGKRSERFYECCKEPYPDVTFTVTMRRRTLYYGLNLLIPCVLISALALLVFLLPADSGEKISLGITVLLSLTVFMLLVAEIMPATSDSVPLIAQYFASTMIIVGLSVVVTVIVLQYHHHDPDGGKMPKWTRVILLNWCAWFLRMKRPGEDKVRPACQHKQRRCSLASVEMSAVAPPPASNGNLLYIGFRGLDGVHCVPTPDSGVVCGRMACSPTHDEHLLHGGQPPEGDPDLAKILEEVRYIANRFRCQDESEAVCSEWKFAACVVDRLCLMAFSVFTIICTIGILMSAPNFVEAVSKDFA
The target of assay [5] is native α7 nicotinic acetylcholine receptor in interneurons of CA1 stratum radiatum, rat hippocampal slices (rat (endogenous in hippocampal slices)) (UniProt Q05941).
native α7 nicotinic acetylcholine receptor in interneurons of CA1 stratum radiatum, rat hippocampal slices (rat (endogenous in hippocampal slices)), sequence (Q05941 23-502): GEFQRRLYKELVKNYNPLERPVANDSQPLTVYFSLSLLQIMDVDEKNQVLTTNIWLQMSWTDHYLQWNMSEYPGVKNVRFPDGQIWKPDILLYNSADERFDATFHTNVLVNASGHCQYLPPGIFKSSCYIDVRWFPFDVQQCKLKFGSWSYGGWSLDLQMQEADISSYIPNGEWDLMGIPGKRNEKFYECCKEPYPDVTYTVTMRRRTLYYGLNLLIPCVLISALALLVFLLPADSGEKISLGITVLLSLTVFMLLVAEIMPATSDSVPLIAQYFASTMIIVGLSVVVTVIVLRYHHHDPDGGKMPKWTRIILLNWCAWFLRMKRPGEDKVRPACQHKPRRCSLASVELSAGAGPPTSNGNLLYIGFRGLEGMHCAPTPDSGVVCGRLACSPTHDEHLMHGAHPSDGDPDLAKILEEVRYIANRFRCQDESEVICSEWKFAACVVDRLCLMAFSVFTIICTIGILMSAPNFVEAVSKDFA
Assay [6] addresses human homomeric α7 nicotinic acetylcholine receptor expressed in X. laevis oocytes (human) (UniProt P36544). The source holds these as a separate data set.

T1 sequence (Q05941 23-502): as above

For `C[N+](C)(C)CCO` [Choline], in assay [1], the “whole-cell patch clamp, hippocampal slices” value is “Application of choline induced the robust currents in the interneurons of CA1 str. radiatum”.

As a reminder, the Kd is the free concentration of one partner at which half of the binding sites on the other are occupied at equilibrium, for simple one-to-one binding. In the case of Lypd6 (from UniProt Q86Y78), the Kd in assay [2] is 1 µM.

In the case of “recombinant water-soluble variant of human Lypd6 containing the isolated three-finger LU-domain (ws-Lypd6) (domain or fragment)”, the IC50 of inhibition of ACh-evoked currents (100 μM ACh, 5 min pre-incubation), two-electrode voltage clamp, X. laevis oocytes in assay [3] amounted to 34.9 µM. This molecule also showed an IC50 of inhibition of ACh-evoked currents (100 μM ACh, 15 s pre-incubation), two-electrode voltage clamp, X. laevis oocytes in assay [4] of 10.9 µM. Also, in assay [5], the amplitude of choline-evoked currents (1 mM choline) with 1 μM ws-Lypd6, whole-cell patch clamp in rat hippocampal slices with 8 μM DhβE; reversed by washout (% of the control value) worked out at 72.

B1: isolated water-soluble LU-domain of Lypd6b (ws-Lypd6b) (domain or fragment)
chain: FKCFTCENAGDNYNCNRWAEDKWCPQNTQYCLTVHHFTSHGRSTSITKKCASRSECHFVGCHHSRDSEHTECRSCCEGMICNVELPTNHTNAVFA
On to B1, for which the reduction of the ACh-evoked current amplitude by 30 μM ws-Lypd6b (100 μM ACh), two-electrode voltage clamp, X. laevis oocytes in assay [6] was 20%.
